Results from the RNAGym collection of RNA variant scans (doi:10.7554/elife.80360).

B1: Twister Ribozyme (parent)
chain: AACACUGCCAAUGCCGGUCCCAAGCCCGGAUAAAAGUGGAGGGGGCGG

Variants of: B1
Test: self-cleavage, relative activity (ratio to wild type); higher = more cleavage; co-transcriptional

Going from AACACUGCCAGUGCCGGUCCCAAGCCCGGAUAAAAGUGUAGGGGGCGG [A11G G39U] to AACACUGCCAAAGCCGGUCCCAAGCCCGGAUAAAAUUGGAGGGGGCGG [U12A G36U], the self-cleavage rises from 0.224 to 0.794.

First: AACACUGCCAAAGCCGGUCCCAAGCCCGGAUAAAAAUGGAGGGGGCGG [U12A G36A]
Second: AACACUGCCAUUGCCGGUCCCAAGCCCGGAUAAAAGUGGAGGGGCCGG [A11U G45C]
The self-cleavage of the first is higher: 0.924 for the first, 0.733 for the second.

First: AACACUGCCAUUGCCGGUCCCAAGCCCGGAUAAAAGUGGAGGGGUCGG [A11U G45U]
Second: AACACUGCCAUUGCCGGUCCCAAGCCCGAAUAAAAGUGGAGGGGGCGG [A11U G29A]
The self-cleavage of the first is lower: 0.953 for the first, 1.02 for the second.

Compared with AACACUGCCAAAGCCGGUCCCAAGCCCGGAUAAAAGUGCAGGGGGCGG [U12A G39C], AACACUGCCAAAGCCGGUCCCAAGCCCGGAUAAAAGUGAAGGGGGCGG [U12A G39A] is higher in self-cleavage: 0.127 for the first, 0.677 for the second.

First: AACACUGCCAUUGCCGGUCCCAAGCCCGGGUAAAAGUGGAGGGGGCGG [A11U A30G]
Second: AACACUGCCAUUGCCGGUCCCAAGCCCGGUUAAAAGUGGAGGGGGCGG [A11U A30U]
The self-cleavage of the first is higher: 1.11 for the first, 1.01 for the second.

Going from AACACUGCCAAAGCCGGUCCCAAGCCCAGAUAAAAGUGGAGGGGGCGG [U12A G28A] to AACACUGCCAUUGCCGGUCCCAAGCCCGGAUAAAAGUGGGGGGGGCGG [A11U A40G], the self-cleavage falls from 0.912 to 0.0881.

First: AACACUGCCAAAGCCGGUCCCGAGCCCGGAUAAAAGUGGAGGGGGCGG [U12A A22G]
Second: AACACUGCCAAAGCCGGUCCCUAGCCCGGAUAAAAGUGGAGGGGGCGG [U12A A22U]
The self-cleavage of the first is lower: 0.396 for the first, 1.02 for the second.

Compared with AACACUGCCAAAGCCGGUCUCAAGCCCGGAUAAAAGUGGAGGGGGCGG [U12A C20U], AACACUGCCAGGGCCGGUCCCAAGCCCGGAUAAAAGUGGAGGGGGCGG [A11G U12G] is lower in self-cleavage: 1.15 for the first, 0.743 for the second.

Compared with AACACUGCCAGAGCCGGUCCCAAGCCCGGAUAAAAGUGGAGGGGGCGG [A11G U12A], AACACUGCCAGUGCCGGUCCCAAGCCCGGAUAAAAAUGGAGGGGGCGG [A11G G36A] is lower in self-cleavage: 0.942 for the first, 0.458 for the second.

First: AACACUGCCAGUGCCGGUCCCAAGCCCGGAUAAAACUGGAGGGGGCGG [A11G G36C]
Second: AACACUGCCAGUGCCGGUCCCAAGCCCGGAUAAAAGUGGAGGGUGCGG [A11G G44U]
The self-cleavage of the first is lower: 0.0984 for the first, 0.876 for the second.

First: AACACUGCCAGUGCCGGUCCCAAGCCCGGAUAAAAGUGGAGGGAGCGG [A11G G44A]
Second: AACACUGCCAUUGCCGGUCCCAGGCCCGGAUAAAAGUGGAGGGGGCGG [A11U A23G]
The self-cleavage of the first is higher: 0.778 for the first, 0.755 for the second.

Compared with AACACUGCCAUUGCCGGUCCCAAGCCCGGAUAAAAGUUGAGGGGGCGG [A11U G38U], AACACUGCCAUUGCCGGUCCCAAGCCCGGAUAAAAGUAGAGGGGGCGG [A11U G38A] is higher in self-cleavage: 0.875 for the first, 1.16 for the second.

Going from AACACUGCCAAAGCCGGUCCCAUGCCCGGAUAAAAGUGGAGGGGGCGG [U12A A23U] to AACACUGCCAGUGCCGGUCCCAAGCCCGGAUAAAAGUGGAGGGGGCCG [A11G G47C], the self-cleavage falls from 0.767 to 0.528.

First: AACACUGCCAGUGCCGGUCCCAAGCCCGGAUAAAAGUGGAGGGGGCUG [A11G G47U]
Second: AACACUGCCAUUGCCGGUCCCAAGCCCGGAUAAAGGUGGAGGGGGCGG [A11U A35G]
The self-cleavage of the first is lower: 0.861 for the first, 0.919 for the second.

Going from AACACUGCCAUUGCCGGUCCCAAGCCCGGAUAUAAGUGGAGGGGGCGG [A11U A33U] to AACACUGCCAAAGCCGGUCCCAAGCCCGGAUUAAAGUGGAGGGGGCGG [U12A A32U], the self-cleavage rises from 1.03 to 1.1.

Going from AACACUGCCAAAGCCGGUCCCAAGCCCGGAUAAGAGUGGAGGGGGCGG [U12A A34G] to AACACUGCCAAAGCCGGUCCCAAGCCCGGAUAAUAGUGGAGGGGGCGG [U12A A34U], the self-cleavage falls from 1.02 to 0.984.

First: AACACUGCCAAAGCCGGUCCCAAGCGCGGAUAAAAGUGGAGGGGGCGG [U12A C26G]
Second: AACACUGCCAAAGCCGGUCCCAAGCCCGGAUAAAAGUGGAGGGGGCGG [U12A]
The self-cleavage of the first is lower: 0.446 for the first, 1.11 for the second.

Compared with AACACUGCCAAAGCCGGUCCCAAGCCCGGAUAGAAGUGGAGGGGGCGG [U12A A33G], AACACUGCCAAAGCCGGUCCCAAGCCCGGAUACAAGUGGAGGGGGCGG [U12A A33C] is higher in self-cleavage: 0.969 for the first, 1.04 for the second.

First: AACACUGCCAAAGCCGGUCCCAAGCCCGGAUAAACGUGGAGGGGGCGG [U12A A35C]
Second: AACACUGCCAAAGCCGGUCCCAAGCCCGGAUAAAGGUGGAGGGGGCGG [U12A A35G]
The self-cleavage of the first is higher: 1.09 for the first, 1.06 for the second.

Going from AACACUGCCAUUGCUGGUCCCAAGCCCGGAUAAAAGUGGAGGGGGCGG [A11U C15U] to AACACUGCCAUUGCCGGUCCCAACCCCGGAUAAAAGUGGAGGGGGCGG [A11U G24C], the self-cleavage falls from 1 to 0.0932.

First: AACACUGCCAUUGCCGGUCCCUAGCCCGGAUAAAAGUGGAGGGGGCGG [A11U A22U]
Second: AACACUGCCAAAGCCGGUCCCAAGCCCGCAUAAAAGUGGAGGGGGCGG [U12A G29C]
The self-cleavage of the first is lower: 0.908 for the first, 0.949 for the second.

First: AACACUGCCAUUGCCGGCCCCAAGCCCGGAUAAAAGUGGAGGGGGCGG [A11U U18C]
Second: AACACUGCCAUUGCCGGACCCAAGCCCGGAUAAAAGUGGAGGGGGCGG [A11U U18A]
The self-cleavage of the first is lower: 0.617 for the first, 1 for the second.

Compared with AACACUGCCAAAGCCGGUCCCAAGCCCGGAUAAAAGUGGAGGGGGAGG [U12A C46A], AACACUGCCAAAGCCGGUCCCAAGCCCGGAUAAAAGUGGAGGGGGGGG [U12A C46G] is higher in self-cleavage: 1.09 for the first, 1.12 for the second.

First: AACACUGCCAAAGCCGGUCCCAAGCCCGGAUAAAAGUCGAGGGGGCGG [U12A G38C]
Second: AACACUGCCAAAGCCGGUCCCAAGCCCGGAUAAAAGUAGAGGGGGCGG [U12A G38A]
The self-cleavage of the first is higher: 1.11 for the first, 1.08 for the second.

First: AACACUGCCAGUGCCGGUCCCAAGCCCGGAUAAAAGUGGAGAGGGCGG [A11G G42A]
Second: AACACUGCCAGUGCCGGUCCCAAGCCCGGAUAAAAGUGGAGCGGGCGG [A11G G42C]
The self-cleavage of the first is lower: 0.441 for the first, 0.455 for the second.

First: AACACUGCCAGUGCCGGUCCCAAGCCCGGAUAAAAGUGGAGUGGGCGG [A11G G42U]
Second: AACACUGCCAAAGCCGGUGCCAAGCCCGGAUAAAAGUGGAGGGGGCGG [U12A C19G]
The self-cleavage of the first is lower: 0.411 for the first, 0.614 for the second.

First: AACACUGCCAAAGCCGGUUCCAAGCCCGGAUAAAAGUGGAGGGGGCGG [U12A C19U]
Second: AACACUGCCAGUGCCGGUCCCAAGCCCGGAUAAAAGAGGAGGGGGCGG [A11G U37A]
The self-cleavage of the first is higher: 0.882 for the first, 0.587 for the second.
